Source: PMC9506113 (Pharmaceuticals, 2022)
Entries after “also recorded” stand apart in the source; their conditions may differ. Bridge positions count the residues as written; N and C are the ends. Square brackets hold non-standard residues; d marks the D form. Peptide text beside a SMILES is read from it. * marks the point of attachment. DOTA = O=C(O)CN1CCN(CC(=O)O)CCN(CC(=O)*)CCN(CC(=O)O)CC1; dPhe(4-NHCONH2) = NC(=O)Nc1ccc(C[C@@H](N)C(=O)O)cc1; Dihydroorotyl(S) = O=C1C[C@@H](C(=O)*)NC(=O)N1; Phe(4-Cl) = N[C@@H](Cc1ccc(Cl)cc1)C(=O)O; Phe(4-NH2) = Nc1ccc(C[C@H](N)C(=O)O)cc1

Experiments:
[1] = system: human and rat SST2; parameters: method as in PMID 19910453; settings: ref [10]; cited from earlier work
[2] = system: bone marrow, spleen, kidneys and other organs; test: Histopathology of normal organs (treatment-related microscopic observations); format: in vivo, Swiss Nude-Foxn1nu mice; settings: for Spleen, extramedullary haematopoiesis, mean score: vehicle 3.7; for Bone marrow, eosinophilic vacuolated cells, number of mice: vehicle 0
Protocol: Once fixed, tumours, spleen, bone marrow (femur), jejunum, colon, tail (injection site), and kidneys were processed to paraffin blocks and tissues slides produced for immunohistochemical analyses or stained with haematoxylin and eosin (H&E) or sirius red (collagen staining) for histopathological examination.
All the slides were evaluated by a board-certified veterinary pathologist (S.L.) using a light microscope (Olympus BX41). The pH2AX and SST2 signal intensities were scored using a semi-quantitative approach (H-score), by multiplying the signal intensity score (0, absent; 1, weak; 2, moderate; 3, strong) with the percentage of labelled cells. The H-score, which ranges from 0 to 300, gives the relative weight of staining in a given tumour sample. Regarding the histopathological examination, the number of mitoses was counted in the areas of tumours with the highest mitotic figures in 1 high-power field at the objective 40. The severity of fibrosis was evaluated on a classical toxicologic pathology scale ranging from 0 (absent) to 5 (severe).

[3] = target: T1, SST2 (AR42J rat pancreatic tumour membranes) (Rattus norvegicus, UniProt P30680); test: Saturation binding assay on AR42J cell membranes; settings: AR42J cell membrane suspension 10 µg/well; radioligand 0.075-10 nM; one-site binding model; γ-counter; mean ± SEM
T1 construct: which is not the case for the AR42J model endogenously expressing SST2; host or cells: AR42J rat acinar pancreatic tumour cell line (membrane preparation)
T1 sequence (P30680 whole entry): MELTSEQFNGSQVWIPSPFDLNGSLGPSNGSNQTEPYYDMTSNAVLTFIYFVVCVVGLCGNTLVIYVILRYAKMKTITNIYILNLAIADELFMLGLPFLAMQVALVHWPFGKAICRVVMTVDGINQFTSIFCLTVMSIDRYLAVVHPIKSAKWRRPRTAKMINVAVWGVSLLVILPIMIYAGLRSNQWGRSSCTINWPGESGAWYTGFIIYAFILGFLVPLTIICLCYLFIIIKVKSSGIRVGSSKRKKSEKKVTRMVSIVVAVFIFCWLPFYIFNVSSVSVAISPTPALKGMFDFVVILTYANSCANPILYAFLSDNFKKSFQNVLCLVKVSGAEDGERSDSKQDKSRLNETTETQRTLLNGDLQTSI
Protocol: The SST2-expressing AR42J, acinar pancreatic tumour cell line derived from a transplantable tumour of a rat exocrine pancreas, was provided by ATCC (LGC Standards, Molsheim, France). Cells were cultured in RPMI 1640 medium (Dutscher, Bernolsheim, France), supplemented with 10% foetal calf serum (PAN-Biotech, Aidenbach, Germany), in a humidified atmosphere at 37 °C with 5% CO2. AR42J membranes were obtained by sonication in 50 mM Tris–HCl, pH 7.4, and centrifugation at 39,000× g for 10 min at 4 °C. The pellet was resuspended in the same buffer and centrifuged at 50,000 ×g for 10 min at 4 °C, and membranes in the resulting pellet were stored at −80 °C until further use.
Saturation binding assays were performed in vitro using AR42J cell membrane suspension (10 µg/well) incubated with increased concentrations (ranging between 0.075 and 10 nM) of the radioligand. […] Membrane-bound radio-peptide was counted in a γ-counter (COBRA 5003, Packard Instruments). The number of binding sites per cell was calculated and fitted to a one-site binding model in GraphPad Prism 8 to determine the dissociation constant (KD) and the number of binding sites (Bmax).

[4] = system: AR42J pancreatic tumour-bearing mice; test: In vivo biodistribution (radioactivity uptake in tumour and organs); settings: for Tumour radioactivity uptake / Femur radioactivity uptake / Spleen radioactivity uptake / Adrenals radioactivity uptake / Kidneys radioactivity uptake / Tail radioactivity uptake: 96 h after fourth injection, mean; for Tumour radioactivity uptake: SST2 expression High; for Femur radioactivity uptake / Spleen radioactivity uptake: SST2 expression Minimal; for Adrenals radioactivity uptake: SST2 expression Moderate; for Kidneys radioactivity uptake / Tail radioactivity uptake: SST2 expression None; for Correlation of radioactivity uptake with SST2 expression levels in organs: except in the kidneys
Protocol: (§1) Healthy female Swiss Nude-Foxn1nu mice, of 7 weeks old, were obtained from Charles River (Ecully, France). The animals were housed and cared for according to French and European regulations on animal experimentation. All procedures with animals were submitted to the Institutional Animal Care and Use Committee of Oncodesign (CNREEA Agreement N°91). Animal physical well-being was monitored on a daily basis, and animal weight was measured at least twice a week. Tumours were induced by subcutaneously injecting 1 × 10^7 AR42J cells in 200 μL of RPMI 1640 into the right flank of the mice. In order to improve cell engraftment, AR42J tumour cell implantation was performed 72 h after whole-body irradiation with a γ-source (2 Gy 60Co; BioMep, Bretenières, France).
(§2) All test substances, including the mixture of radiolabelling buffer and 0.9% NaCl solution administered in the vehicle group, were intravenously injected into the caudal vein once a week for 4 consecutive weeks. The treatment schedule was determined by the growth kinetics of the AR42J tumour model. The day of randomisation was considered as day 0. […] Tumour growth delay was estimated by calculating the median time taken to reach a tumour volume of 850 mm^3. Animals were sacrificed once their tumour volume exceeded 1500 mm^3. The study was stopped on day 83 because only 1 and 3 animals remained with non-progressing tumours in groups 3 and 4, respectively.
(§3) Twelve mice (3 in each group) were sacrificed at 96 h after the fourth administration of the test substances to evaluate at the same time toxicity and haematological parameters, and radioactivity uptake in tumours and organs after 4 cycles. The remaining 50 mice (10 in both groups 1 and 4, and 15 in both groups 2 and 3) were either sacrificed for ethical reasons on the last day of the study, on day 83. At 96 h, following the last treatment administration, individual tumours and organs of interest were collected, blotted dry, weighted, fixed in formalin, and the amount of radioactivity present in each organ was quantified using a γ-counter. The radioactivity uptake in tumour and organs was determined and expressed as MBq/g of tissue as well as percentage injected dose/g of tissue (%ID/g).

[5] = in vivo; settings: female, Swiss Nude-Foxn1nu, mouse, in vivo, iv, total radioactivity
Protocol: as §1, §2, §3

[6] = system: SST2-positive NETs; settings: in vivo; cited from earlier work
[7] = system: kidney; settings: human, in vivo; cited from earlier work
[8] = 15 MBq, Tail uptake (injection site), 15 MBq x 4, 96 h after fourth injection, mean (SEM)
[9] = 15 MBq, Tumour uptake, 15 MBq, i.v. once a week x 4, 96 h after fourth injection, mean (SEM)
[10] = 15 MBq, compared with [^177Lu]Lu-DOTA-TATE at 15 or 30 MBq, 96 h

Compound	Kd [3] [nM]	Tumour radioactivity uptake ([4]; 15 MBq x 4) [MBq/g]	Femur radioactivity uptake ([4]; 15 MBq x 4) [MBq/g]	Spleen radioactivity uptake ([4]; 15 MBq x 4) [MBq/g]	Adrenals radioactivity uptake ([4]; 15 MBq x 4) [MBq/g]	Kidneys radioactivity uptake ([4]; 15 MBq x 4) [MBq/g]	Tail radioactivity uptake ([4]; 15 MBq x 4) [MBq/g]	Correlation of radioactivity uptake with SST2 expression levels in organs ([4]; 15 MBq)	tissue uptake at 96 h ([5]; 15 MBq, Adrenals uptake) [%ID/g]	tissue uptake at 96 h ([5]; 15 MBq, Femur uptake) [%ID/g]	tissue uptake at 96 h ([5]; 15 MBq, Kidneys uptake) [%ID/g]	tissue uptake at 96 h ([5]; 15 MBq, Spleen uptake) [%ID/g]	tissue uptake at 96 h [5, 8] [%ID/g]	tissue uptake at 96 h [5, 9] [%ID/g]	other results
Pasireotide															Species difference human versus rat SST2 [1]: species dissimilarities between human and rat SST2
C[C@@H](O)[C@H](NC(=O)[C@@H]1CSSC[C@H](NC(=O)[C@@H](Cc2ccccc2)NC(=O)CN2CCN(CC(=O)O)CCN(CC(=O)O)CCN(CC(=O)O)CC2)C(=O)N[C@@H](Cc2ccc(O)cc2)C(=O)N[C@H](Cc2c[nH]c3ccccc23)C(=O)N[C@@H](CCCCN)C(=O)N[C@@H]([C@@H](C)O)C(=O)N1)C(=O)O [[^177Lu]Lu-DOTA-TATE, metal not drawn]	0.48 ± 0.2	1.0	0.006	0.0032	0.11	0.066	0.01	overall well-correlated with SST2 expression levels in different organs, except in the kidneys	0.59	0.034	0.36	0.018	0.055	5.6	Spleen, extramedullary haematopoiesis, mean score ([2]; 30 MBq x 4, 96 h): 2.3; Bone marrow, eosinophilic vacuolated cells, number of mice ([2]; 30 MBq x 4, end of study, 11 mice examined): one animal; Tumour radioactivity uptake ([4]; 30 MBq x 4): 2.2 MBq/g; Femur radioactivity uptake ([4]; 30 MBq x 4): 0.008 MBq/g; Spleen radioactivity uptake ([4]; 30 MBq x 4): 0.006 MBq/g; Adrenals radioactivity uptake ([4]; 30 MBq x 4): 0.23 MBq/g; Kidneys radioactivity uptake ([4]; 30 MBq x 4): 0.20 MBq/g; Tail radioactivity uptake ([4]; 30 MBq x 4): 0.016 MBq/g; Correlation of radioactivity uptake with SST2 expression levels in organs ([4]; 30 MBq): overall well-correlated with SST2 expression levels in different organs, except in the kidneys; tissue uptake at 96 h ([5]; 30 MBq, Adrenals uptake): 0.6 %ID/g; tissue uptake at 96 h ([5]; 30 MBq, Femur uptake): 0.022 %ID/g; tissue uptake at 96 h ([5]; 30 MBq, Kidneys uptake): 0.51 %ID/g; tissue uptake at 96 h ([5]; 30 MBq, Spleen uptake): 0.015 %ID/g; tissue uptake at 96 h ([5]; 30 MBq, Tail uptake (injection site), 30 MBq x 4, 96 h after fourth injection, mean (SEM)): 0.042 %ID/g; tissue uptake at 96 h ([5]; 30 MBq, Tumour uptake, 30 MBq, i.v. once a week x 4, 96 h after fourth injection, mean (SEM)): 5.8 %ID/g
C[C@@H](O)[C@@H]1NC(=O)[C@H](CCCCN)NC(=O)[C@@H](Cc2ccc(NC(N)=O)cc2)NC(=O)[C@H](Cc2ccc(NC(=O)[C@@H]3CC(=O)NC(=O)N3)cc2)NC(=O)[C@H](NC(=O)[C@H](Cc2ccc(Cl)cc2)NC(=O)CN2CCN(CC(=O)O)CCN(CC(=O)O)CCN(CC(=O)O)CC2)CSSC[C@@H](C(=O)N[C@H](Cc2ccc(O)cc2)C(N)=O)NC1=O [[^177Lu]Lu-satoreotide tetraxetan, metal not drawn] ({DOTA}-[Phe(4-Cl)][dC][Phe(4-NH2)](Dihydroorotyl(S))[dPhe(4-NHCONH2)]KTC[dY]-NH2; disulfide 2-7)	0.088 ± 0.01	3.5	0.014	0.013	0.12	0.51	0.015	overall well-correlated with SST2 expression levels in different organs, except in the kidneys	0.7	0.08	2.9	0.072	0.082	20	Bone marrow, myeloid/erythroid ratio, mean score ([2]; 15 MBq x 4, 96 h, vehicle 2.3): 3.0; Spleen, extramedullary haematopoiesis, mean score ([2]; 15 MBq x 4, 96 h): 2.3; Bone marrow, eosinophilic vacuolated cells, number of mice ([2]; 15 MBq x 4, end of study, examined 11 (DOTATATE), 7 (satoreotide)): one animal; Bone marrow, myeloid/erythroid ratio, mean score ([2]; 15 MBq x 4, end of study, vehicle 1.2): 2.7; Mean femur radioactivity uptake versus [^177Lu]Lu-DOTA-TATE [4, 10]: two times higher; Mean kidney radioactivity uptake versus [^177Lu]Lu-DOTA-TATE [4, 10]: up to eight times higher; Mean tumour radioactivity uptake versus [^177Lu]Lu-DOTA-TATE [4, 10]: up to three times higher; also recorded: approximately three times higher tumour uptake; Safety profile [6]: manageable safety profile; Renal uptake and potential renal toxicity [7]: limited
